Test results from patent US20110059889A1 (SYNTONIX PHARMACEUTICALS, published 2011).
Numbered stars: 1 amine (or outer) side, 2 acyl side, 3 side chain; on linkers, the order of the positions; unused ones are H or OH. Bridge positions count the residues as written; N and C are the ends. Square brackets hold non-standard residues; d marks the D form. Ends that are not written are not given here. X2 = (3R)‑3‑amino‑1‑carboxymethyl‑valerolactam, O=C1[C@H](N[*:1])CCCN1CC(=O)[*:2]; X1 = 3‑amino‑2‑oxo‑1‑piperidine‑acetic acid, O=C1C(N[*:1])CCCN1CC(=O)[*:2]; NMeL = CN[C@@H](CC(C)C)C(=O)O; Pen = CC(C)(S)[C@H](N)C(=O)O; NMeA = CN[C@@H](C)C(=O)O; Sar = CNCC(=O)O

B1: Peptide No. 237 (peptide)
peptide: RF[Pen]TGHFGGWYPC-NH2
modifications: disulfide 3-13; N-terminus assumed
SMILES: C[C@@H](O)[C@@H]1NC(=O)[C@@H](NC(=O)[C@H](Cc2ccccc2)NC(=O)[C@@H](N)CCCNC(=N)N)C(C)(C)SSC[C@@H](C(N)=O)NC(=O)[C@@H]2CCCN2C(=O)[C@H](Cc2ccc(O)cc2)NC(=O)[C@H](Cc2c[nH]c3ccccc23)NC(=O)CNC(=O)CNC(=O)[C@H](Cc2ccccc2)NC(=O)[C@H](Cc2c[nH]cn2)NC(=O)CNC1=O
B2: Peptide No. 101 (peptide)
peptide: QRF[Pen]TGHFGGIYPCNGP-NH2
modifications: disulfide 4-14; N-terminus assumed
SMILES: CC[C@H](C)[C@@H]1NC(=O)CNC(=O)CNC(=O)[C@H](Cc2ccccc2)NC(=O)[C@H](Cc2c[nH]cn2)NC(=O)CNC(=O)[C@H]([C@@H](C)O)NC(=O)[C@@H](NC(=O)[C@H](Cc2ccccc2)NC(=O)[C@H](CCCNC(=N)N)NC(=O)[C@@H](N)CCC(N)=O)C(C)(C)SSC[C@@H](C(=O)N[C@@H](CC(N)=O)C(=O)NCC(=O)N2CCC[C@H]2C(N)=O)NC(=O)[C@@H]2CCCN2C(=O)[C@H](Cc2ccc(O)cc2)NC1=O
B3: Peptide No. 115 (peptide)
peptide: QRF[Pen]TGHFGGFYPCNGP-NH2
modifications: disulfide 4-14; N-terminus assumed
SMILES: C[C@@H](O)[C@@H]1NC(=O)[C@@H](NC(=O)[C@H](Cc2ccccc2)NC(=O)[C@H](CCCNC(=N)N)NC(=O)[C@@H](N)CCC(N)=O)C(C)(C)SSC[C@@H](C(=O)N[C@@H](CC(N)=O)C(=O)NCC(=O)N2CCC[C@H]2C(N)=O)NC(=O)[C@@H]2CCCN2C(=O)[C@H](Cc2ccc(O)cc2)NC(=O)[C@H](Cc2ccccc2)NC(=O)CNC(=O)CNC(=O)[C@H](Cc2ccccc2)NC(=O)[C@H](Cc2c[nH]cn2)NC(=O)CNC1=O
B4: Peptide No. 205 (peptide)
peptide: RFCTGHFXLYPC
modifications: not fully specified; Pen 3; X 8 = 3(S)-2-amino-2-oxo-1-azepine acetic acid (so in the source) in place of Gly-Gly; disulfide 3-12; C-terminal amide
B5: Peptide No. 214 (peptide)
peptide: RFCTGHFXLYPC
modifications: not fully specified; Pen 3; X 8 = 3(S)-3-amino-2-oxo-1-pyrrolidine acetic acid in place of Gly-Gly; disulfide 3-12; C-terminal amide
B6: Peptide No. 228 (peptide)
peptide: RF[Pen][NMeA]GHF[X2][NMeL]YPC-NH2
modifications: disulfide 3-12; N-terminus assumed
SMILES: CC(C)C[C@H]1C(=O)N[C@@H](Cc2ccc(O)cc2)C(=O)N2CCC[C@H]2C(=O)N[C@H](C(N)=O)CSSC(C)(C)[C@H](NC(=O)[C@H](Cc2ccccc2)NC(=O)[C@@H](N)CCCNC(=N)N)C(=O)N(C)[C@@H](C)C(=O)NCC(=O)N[C@@H](Cc2c[nH]cn2)C(=O)N[C@@H](Cc2ccccc2)C(=O)N[C@@H]2CCCN(CC(=O)N1C)C2=O
B7: Peptide No. 96 (peptide)
peptide: QR[dF][Pen]TGHFGGLYPCNGP-NH2
modifications: disulfide 4-14; N-terminus assumed
SMILES: CC(C)C[C@@H]1NC(=O)CNC(=O)CNC(=O)[C@H](Cc2ccccc2)NC(=O)[C@H](Cc2c[nH]cn2)NC(=O)CNC(=O)[C@H]([C@@H](C)O)NC(=O)[C@@H](NC(=O)[C@@H](Cc2ccccc2)NC(=O)[C@H](CCCNC(=N)N)NC(=O)[C@@H](N)CCC(N)=O)C(C)(C)SSC[C@@H](C(=O)N[C@@H](CC(N)=O)C(=O)NCC(=O)N2CCC[C@H]2C(N)=O)NC(=O)[C@@H]2CCCN2C(=O)[C@H](Cc2ccc(O)cc2)NC1=O
B8: Peptide No. 97 (peptide)
peptide: QRY[Pen]TGHFGGLYPCNGP-NH2
modifications: disulfide 4-14; N-terminus assumed
SMILES: CC(C)C[C@@H]1NC(=O)CNC(=O)CNC(=O)[C@H](Cc2ccccc2)NC(=O)[C@H](Cc2c[nH]cn2)NC(=O)CNC(=O)[C@H]([C@@H](C)O)NC(=O)[C@@H](NC(=O)[C@H](Cc2ccc(O)cc2)NC(=O)[C@H](CCCNC(=N)N)NC(=O)[C@@H](N)CCC(N)=O)C(C)(C)SSC[C@@H](C(=O)N[C@@H](CC(N)=O)C(=O)NCC(=O)N2CCC[C@H]2C(N)=O)NC(=O)[C@@H]2CCCN2C(=O)[C@H](Cc2ccc(O)cc2)NC1=O
B9: Peptide No. 98 (peptide)
peptide: QRW[Pen]TGHFGGLYPCNGP-NH2
modifications: disulfide 4-14; N-terminus assumed
SMILES: CC(C)C[C@@H]1NC(=O)CNC(=O)CNC(=O)[C@H](Cc2ccccc2)NC(=O)[C@H](Cc2c[nH]cn2)NC(=O)CNC(=O)[C@H]([C@@H](C)O)NC(=O)[C@@H](NC(=O)[C@H](Cc2c[nH]c3ccccc23)NC(=O)[C@H](CCCNC(=N)N)NC(=O)[C@@H](N)CCC(N)=O)C(C)(C)SSC[C@@H](C(=O)N[C@@H](CC(N)=O)C(=O)NCC(=O)N2CCC[C@H]2C(N)=O)NC(=O)[C@@H]2CCCN2C(=O)[C@H](Cc2ccc(O)cc2)NC1=O
B10: Peptide No. 238 (peptide)
peptide: QRF[Pen]TGHFG[Sar]WYPCNGP-NH2
modifications: disulfide 4-14; N-terminus assumed
SMILES: C[C@@H](O)[C@@H]1NC(=O)[C@@H](NC(=O)[C@H](Cc2ccccc2)NC(=O)[C@H](CCCNC(=N)N)NC(=O)[C@@H](N)CCC(N)=O)C(C)(C)SSC[C@@H](C(=O)N[C@@H](CC(N)=O)C(=O)NCC(=O)N2CCC[C@H]2C(N)=O)NC(=O)[C@@H]2CCCN2C(=O)[C@H](Cc2ccc(O)cc2)NC(=O)[C@H](Cc2c[nH]c3ccccc23)NC(=O)CN(C)C(=O)CNC(=O)[C@H](Cc2ccccc2)NC(=O)[C@H](Cc2c[nH]cn2)NC(=O)CNC1=O
B11: Peptide No. 279 (peptide)
peptide: RF[Pen]TGHFG[Sar][NMeL]YPC-NH2
modifications: disulfide 3-13; also: dimer: N-termini joined by Bis-dPEG6 diacid linker
notes: N-terminally linked dimer; drawing CHEM-US-00123
B12: Peptide No. 280 (peptide)
peptide: RFCTGHFGGLYPC
modifications: Pen 3; Sar 9; NMeLeu 10; disulfide 3-13 within each chain; C-termini joined through the two amino groups of a branching Lys
notes: C-terminally linked dimer; drawing CHEM-US-00124
B13: Peptide No. 287 (peptide)
peptide: RF[Pen]TGHFG[Sar][NMeL]YPCG
modifications: disulfide 3-13; also: dimer: C-termini joined through a branching Lys
notes: C-terminally linked dimer; drawing CHEM-US-00131
B14: Peptide No. 201 (peptide)
peptide: QRF[Pen]TGHFGGLYPCNGP-NH2
modifications: disulfide 4-14; also: N-terminally linked homodimer via ethylene glycol-bis(succinic acid) linker
notes: N-terminally linked dimer
B15: Peptide No. 288 (peptide)
peptide: RF[Pen]TGHFG[Sar][NMeL]YPCGG
modifications: disulfide 3-13; also: dimer: C-termini joined through a branching Lys
notes: C-terminally linked dimer; drawing CHEM-US-00132

target: T1, soluble human FcRn (shFcRn) (human, UniProt P55899 24-297; P61769 21-119); experiment: SPR pH 6
T1 construct: Biotinylated for the ELISA, amine-coupled to a CM5 chip for SPR; also called biotinylated shFcRn
Description: (§1) The following steps were performed to cross-link soluble human or cynomolgus FcRn to the dextran surface of a CM5 sensor chip (Biacore AB, Uppsala, Sweden) by an amine coupling reaction involving 1-ethyl-(3-dimethylaminopropyl)-carbodiimide hydrochloride (EDC) (Biacore AB, Uppsala, Sweden) and N-hydroxysuccinimide (NHS) (Biacore AB, Uppsala, Sweden) as recommended by Biacore (BIAapplications Handbook, version AB, section 4.2, Biacore AB, Uppsala, Sweden). […] Residual sites on the FcRn flow cell were blocked with 1 M ethanolamine hydrochloride pH 8.5 (Biacore AB, Uppsala, Sweden). A control flow cell was blocked with ethanolamine for reference subtraction. For analysis of the monomeric peptides, FcRn was coated to a final density of 4000-5000 response units (RU). For analysis of the peptide dimers, FcRn was coated to a density of 2000-2500 RU. All SPR measurements were performed using a BIACORE 3000 Instrument (Biacore AB Uppsala, Sweden). For measurements done at either pH 6 or pH 7.4, experiments were performed in 50 mM phosphate, 100 mM sodium chloride, 0.01% surfactant P20 (Biacore AB, Uppsala, Sweden).
(§2) Ten, 2-fold dilutions of the peptide were injected over the FcRn-CM5 chip at a rate of 20 μl/min for 2 min. The peptide was dissociated from the chip for 2.5 minutes with buffer. Any remaining peptide was removed from the chip with a 30 second injection of HBS-P buffer (Biacore AB, Uppsala, Sweden) at a rate of 30 μl/min. Sensorgrams were generated and analyzed using BiaEval software version 3.1 (Biacore AB, Uppsala, Sweden). The equilibrium RU observed for each injection was plotted against concentration. The equilibrium KD values were derived by analysis of the plots using the steady state affinity model included in the BiaEval software.

Kd [nM] | Binder
140 | B1
340 | B2
400 | B3

target: T1, soluble human FcRn (shFcRn); experiment: SPR pH 6; remark: another data set of the same source
Description: as §1, §2

Kd [nM] | Binder
103 | B4
160 | RF[Pen]TGHF[X1]LYPC-NH2 (disulfide 3-12) [Peptide No. 178]
670 | RF[Pen]TGHF[X1]LYPC-NH2 (disulfide 3-12) [Peptide No. 179]
280 | B5
145 | B6

target: T1, soluble human FcRn (shFcRn); experiment: IgG competition ELISA
Description: (§3) The wells were coated with 100 μl/well of 1 μg/ml biotinylated-shFcRn in Buffer A. The plate was sealed and incubated at 37° C. for 2 hours. Afterwards, the plate was washed with 200 μl/well of Buffer B (Buffer B: 100 mM MES pH 6, 150 mM NaCl, 0.5% BSA IgG-free (Jackson ImmunoResearch, West Grove, Pa.), 0.05% Tween-20). […] To allow for mixing, the plate was rocked for 2 minutes, sealed and incubated at 37° C. for 2 hours. […] The plate was covered, incubated for 30 minutes at room temperature and washed 4 times with 200 μl/well of ice-cold buffer B. SureBlue TMB substrate solution (100 μl/well, KPL, Gaithersburg, Md.) was added and the plate was allowed to incubate at room temperature until color developed, which took 5 to 10 minutes. Once color developed, 100 μl/well of TMB stop solution (KPL, Gaithersburg, Md.) was added and the absorbance was measured at 450 nm. The data was plotted as absorbance vs. peptide concentration to derive the inhibitory concentration 50% (IC₅₀) values.

IC50 [nM] | Binder
11400 | B7
2400 | B8
1500 | B9

target: T1, soluble human FcRn (shFcRn); experiment: IgG competition ELISA; remark: another data set of the same source
Description: as §3

IC50 [nM] | Binder
2800 | B1
1000 | B10
3400 | B2
4100 | B3

target: T1, soluble human FcRn (shFcRn); experiment: IgG competition ELISA; remark: another data set of the same source
Description: as §3

IC50 [nM] | Binder
640 | B4
660 | RF[Pen]TGHF[X1]LYPC-NH2 (disulfide 3-12) [Peptide No. 178]
7200 | RF[Pen]TGHF[X1]LYPC-NH2 (disulfide 3-12) [Peptide No. 179]
2300 | B5
1100 | B6

target: T1, soluble human FcRn (shFcRn); experiment: IgG competition ELISA; remark: another data set of the same source
Description: as §3

IC50 [nM] | Binder
7 | B11
25 | B12
20 | B13
26 | B14
16 | B15
